In patent US20050112126A1 (Genentech, published 2005):
Values joined by “and” are separate entries in the source; they are usually repeats but may differ in a detail not shown here. Equal values may be shown once. Read-outs that look alike come from different tables or passages of the source.

Columns and labels:
VEGF [1] = target: T1, VEGF (human, UniProt P15692-4 27-191, limits assumed); experiment: competition ELISA (biotinylated VEGF to KDR-IgG)
T1 construct: Biotinylated in the KDR-IgG ELISA, amine-coupled to the chip in BIAcore; also called biotinylated VEGF; vascular endothelial growth factor

VEGF [2] = target: T1, VEGF; experiment: BIAcore-2000 SPR, Fab over immobilized VEGF, 25 C; off-rate near detection limit
Experimental: (§1) BIAcore Analysis: The VEGF-binding affinities of Fab fragments were calculated from association and dissociation rate constants measured using a BIAcore-2000™ surface plasmon resonance system (BIAcore, Inc., Piscataway, N.J.). A biosensor chip was activated for covalent coupling of VEGF using N-ethyl-N′-(3-dimethylaminopropyl)-carbodiimide hydrochloride (EDC) and N-hydroxysuccinimide (NHS) according to the supplier's (BIAcore, Inc., Piscataway, N.J.) instructions. VEGF was buffered exchanged into 20 mM sodium acetate, pH 4.8 and diluted to approximately 50 μg/mL. An aliquot (35 μL) was injected at a flow rate of 2 μL/min to achieve approximately 700-1400 response units (RU) of coupled protein. Finally, 1 M ethanolamine was injected as a blocking agent.
(§2) For kinetics measurements, two-fold serial dilutions of Fab were injected in PBS/TWEEN™ buffer (0.05% TWEEN 20™ in phosphate buffered saline) at 25° C. at a flow rate of 10 μL/min. […] Equilibrium dissociation constants, Kd's from surface plasmon resonance (SPR) measurements were calculated as koff/kon.

VEGF [3] = target: T1, VEGF; experiment: BIAcore-2000 SPR, relative to Y0192
Experimental: as §1, §2

VEGF [4] = target: T1, VEGF; experiment: BIAcore-2000 SPR, Fab over immobilized VEGF, 25 C
Experimental: as §1, §2
Target sequence in this assay (P15692 other isoform, or with tags, fused parts or gaps limits assumed): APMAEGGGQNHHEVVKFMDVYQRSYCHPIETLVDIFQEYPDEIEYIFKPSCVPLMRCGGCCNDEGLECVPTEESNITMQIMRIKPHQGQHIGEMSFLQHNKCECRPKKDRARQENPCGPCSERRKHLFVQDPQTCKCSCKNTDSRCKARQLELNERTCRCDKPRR

rhVEGF165 [5] = target: T2, rhVEGF165 (human, UniProt P15692 27-191); experiment: cell-based or functional assay
rhVEGF165 [6] = target: T2, rhVEGF165; experiment: cell-based or functional assay; remark: listed apart in the source
VEGF [7] = target: T1, VEGF; experiment: BIAcore SPR, F(ab) over immobilized VEGF
Text: (§3) BIAcore™ Biosensor Assay: VEGF binding of the humanized and chimeric F(ab)s were compared using a BIAcore™ biosensor (Karlsson et al. Methods: A Comparison to Methods in Enzymology 6:97-108 (1994)). […] VEGF was coupled to a CM-5 biosensor chip through primary amine groups according to manufacturer's instructions (Pharmacia). […] Data points from 0-4500 sec were used for off-rate kinetic analysis. The dissociation rate constant (koff) was obtained from the slope of the plot of ln(R0/R) versus time, where R0 is the signal at t=0 and R is the signal at each time point.
(§4) The slope, Kₛ, was obtained from the plot of ln(−dR/dt) versus time for each F(ab) concentration using the BIAcore™ kinetics evaluation software as described in the Pharmacia Biosensor manual. R is the signal at time t. […] The association rate constant (kₒₙ) was obtained from the slope of the plot of Kₛ versus F(ab) concentration. At the end of each cycle, bound F(ab) was removed by injecting 5 μl of 50 mM HCl at a flow rate of 20 μl/min to regenerate the chip.

VEGF121 = target: T3, VEGF121 (human, UniProt P15692 27-147); experiment: BIAcore SPR, Fab over immobilized VEGF121
T3 construct: mature; Immobilized on the biosensor chip via primary amino groups; also called Purified VEGF121
T3 sequence (looked up): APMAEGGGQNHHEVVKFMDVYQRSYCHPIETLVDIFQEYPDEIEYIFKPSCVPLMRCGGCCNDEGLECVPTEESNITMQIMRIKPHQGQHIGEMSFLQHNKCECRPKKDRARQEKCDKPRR
Experimental: VEGF₁₂₁ was covalently immobilized on the biosensorchip via primary amino groups. Binding of humanized A4.6.1 Fab variants was measured by flowing solutions of Fab in PBS/0.05% TWEEN 20™ over the chip at a flow rate of 20 μL/min. Following each binding measurement, residual Fab was stripped from the immobilized ligand by washing with 5 μL of 50 mM aqueous HCl at 3 μL/min. Binding profiles were analyzed by nonlinear regression using a simple monovalent binding model (BIAevaluation software v2.0; Pharmacia).

VEGF [8] = target: T1, VEGF; experiment: BIAcore SPR, F(ab) over immobilized VEGF, koff/kon
Text: as §3, §4

VEGF [9] = target: T1, VEGF; experiment: competition ELISA (biotinylated VEGF to KDR-IgG); remark: listed apart in the source
Experimental: (§5) Standards (6.9-440 ng/ml chimeric F(ab)) and two-fold serial of samples were incubated with 2 nM biotinylated VEGF for 1 h in tubes. The solutions from the tubes were then transferred to the ELISA plates and incubated for 1 h. […] Titration curves were fit with a four-parameter nonlinear regression curve-fitting program (KaleidaGraph, Synergy Software, Reading Pa.). […] Assays for full-length IgG were the same as for the F(ab)s except that the assay buffer contained 10% human serum.

VEGF [10] = target: T1, VEGF; experiment: competition ELISA (biotinylated VEGF to KDR-IgG), 10% human serum
Experimental: as §5

B1: F(ab)-1 (Fab, V domains shown)
VH: EVQLVESGGGLVQPGGSLRLSCAASGYTFTNYGMNWVRQAPGKGLEWVGWINTYTGEPTYAADFKRRFTISRDNSKNTLYLQMNSLRAEDTAVYYCARYPHYYGSSHWYFDVWGQGTLVTVSS
VL: DIQMTQSPSSLSASVGDRVTITCSASQDISNYLNWYQQKPGKAPKLLIYFTSSLHSGVPSRFSGSGSGTDFTLTISSLQPEDFATYYCQQYSTVPWTFGQGTKVEIK
VEGF [1]
  EC50 F(ab)-X / EC50 chimeric F(ab): > 1350
  fold reduction of binding affinity from the chimeric F(ab): > 1000 fold

B2: Y0238-7 (Fab, V domains shown)
VH: EVQLVESGGGLVQPGGSLRLSCAASGYTFTNYGINWVRQAPGKGLEWVGWINTYTGEPTYAADFKRRFTFSLDTSKSTAYLQMNSLRAEDTAVYYCAKYPYYWGTSHWYFDVWGQGTL
VL: DIQLTQSPSSLSASVGDRVTITCRANEQLSNYLNWYQQKPGKAPKVLIYFTSSLHSGVPSRFSGSGSGTDFTLTISSLQPEDFATYYCQQYSTVPWTFGQGTKVEIKR
notes: From library YC-81 on the pY0192 template; Soluble Fab
VEGF [2]
  koff: ≤ 6e-06 s⁻¹
VEGF [3]
  Kd (wt)/Kd (mut): ≥ 7.3 ratio
VEGF [4]
  Kd: ≤ 0.4 nM
  kon: 15000 M⁻¹ s⁻¹

B3: Y0313-1 (Fab, V domains shown)
VH: EVQLVESGGGLVQPGGSLRLSCAASGYDFTHYGMNWVRQAPGKGLEWVGWINTYTGEPTYAADFKRRFTFSLDTSKSTAYLQMNSLRAEDTAVYYCAKYPYYYGTSHWYFDVWGQGTL
VL: DIQLTQSPSSLSASVGDRVTITCRANEQLSNYLNWYQQKPGKAPKVLIYFTSSLHSGVPSRFSGSGSGTDFTLTISSLQPEDFATYYCQQYSTVPWTFGQGTKVEIKR
notes: Soluble Fab; Y0243-1 with VH3 H101Y and S105T
VEGF [2]
  koff: ≤ 5.4e-06 s⁻¹
VEGF [3]
  Kd (wt)/Kd (mut): ≥ 20 ratio
VEGF [4]
  Kd: ≤ 0.15 nM
  kon: 35000 M⁻¹ s⁻¹
rhVEGF165 [5]
  IC50 (read off the curve): ~0.5 nM
rhVEGF165 [6]
  fold potency over the wild-type Fab (Y0192), inhibition of VEGF-induced HuVEC growth: > 30 fold

B4: chimeric F(ab) (Fab, V domains shown)
VH: EIQLVQSGPELKQPGETVRISCKASGYTFTNYGMNWVKQAPGKGLKWMGWINTYTGEPTYAADFKRRFTFSLETSASTAYLQISNLKNDDTATYFCAKYPHYYGSSHWYFDVWGAGTTVTVSS
VL: DIQMTQTTSSLSASLGDRVIISCSASQDISNYLNWYQQKPDGTVKVLIYFTSSLHSGVPSRFSGSGSGTDYSLTISNLEPEDIATYYCQQYSTVPWTFGGGTKLEIKR
notes: also called chim-F(ab); A4.6.1 chimera
VEGF [7]
  koff: 5.9e-05 s⁻¹
  kon: 65000 M⁻¹ s⁻¹
VEGF121
  Kd: 1.6 nM
  koff: 8.5e-05 s⁻¹
  kon: 54000 M⁻¹ s⁻¹
VEGF [8]
  Kd: 0.91 nM
VEGF [9]
  EC50: 0.049 µg/mL and 1 nM
  EC50 F(ab)-X / EC50 chimeric F(ab): 1 ratio

B5: chIgG1 (antibody, V domains shown)
VH: EIQLVQSGPELKQPGETVRISCKASGYTFTNYGMNWVKQAPGKGLKWMGWINTYTGEPTYAADFKRRFTFSLETSASTAYLQISNLKNDDTATYFCAKYPHYYGSSHWYFDVWGAGTTVTVSS
VL: DIQMTQTTSSLSASLGDRVIISCSASQDISNYLNWYQQKPDGTVKVLIYFTSSLHSGVPSRFSGSGSGTDYSLTISNLEPEDIATYYCQQYSTVPWTFGGGTKLEIKR
notes: Murine A4.6.1 VL and VH fused to human kappa CL and human IgG1 heavy chain constant domains; also called chimeric IgG1
VEGF [10]
  EC50: 0.113 µg/mL and 0.75 nM
  IgG1/chIgG1 (EC50 ratio): 1 ratio

B6: muMAb VEGF A.4.6.1 (antibody, V domains shown)
VH: EIQLVQSGPELKQPGETVRISCKASGYTFTNYGMNWVKQAPGKGLKWMGWINTYTGEPTYAADFKRRFTFSLETSASTAYLQISNLKNDDTATYFCAKYPHYYGSSHWYFDVWGAGTTVTVSS
VL: DIQMTQTTSSLSASLGDRVIISCSASQDISNYLNWYQQKPDGTVKVLIYFTSSLHSGVPSRFSGSGSGTDYSLTISNLEPEDIATYYCQQYSTVPWTFGGGTKLEIKR
notes: Original murine IgG1 antibody purified from ascites; also called murIgG1; murine mAb A4.6.1
VEGF [10]
  IgG1/chIgG1 (EC50 ratio): 0.759 ratio
